Paper PMC5682932 (The Biochemical journal, 2017)
Residue numbers refer to the chain shown, from its start. Names and notes keep the numbering of the source.

B1: pre-mRNA processing factor 4 (PRPF4), residues 1-169 (domain or fragment, human, UniProt O43172 1-169, looked up)
chain: MASSRASSTQATKTKAPDDLVAPVVKKPHIYYGSLEEKERERLAKGESGILGKDGLKAGIEAGNINITSGEVFEIEEHISERQAEVLAEFERRKRARQINVSTDDSEVKACLRALGEPITLFGEGPAERRERLRNILSVVGTDALKKTKKDDEKSKKSKEEYQQTWYHE
B2: PRPF4 residues 1-169 with F122A (domain or fragment, human, UniProt O43172 1-169, looked up)
chain: B1 chain with F122A
B3: pre-mRNA processing factor 4 (PRPF4), residues 106-169 (domain or fragment, human, UniProt O43172 106-169, looked up)
chain: SEVKACLRALGEPITLFGEGPAERRERLRNILSVVGTDALKKTKKDDEKSKKSKEEYQQTWYHE
B4: PRPF4 residues 106-169 with F122A (domain or fragment, human, UniProt O43172 106-169, looked up)
chain: B3 chain with F17A
B5: pre-mRNA processing factor 4 (PRPF4), residues 1-98 (domain or fragment, human, UniProt O43172 1-98, looked up)
chain: MASSRASSTQATKTKAPDDLVAPVVKKPHIYYGSLEEKERERLAKGESGILGKDGLKAGIEAGNINITSGEVFEIEEHISERQAEVLAEFERRKRARQ

Assays:
[1] = target: T1, peptidyl-prolyl isomerase H (PPIH), full length, wild type (human, UniProt O43447 1-177); test: SPR
PPIH W133A mutant = target: T2, PPIH W133A mutant (human, UniProt O43447 1-177, W133A); test: SPR
T2 sequence: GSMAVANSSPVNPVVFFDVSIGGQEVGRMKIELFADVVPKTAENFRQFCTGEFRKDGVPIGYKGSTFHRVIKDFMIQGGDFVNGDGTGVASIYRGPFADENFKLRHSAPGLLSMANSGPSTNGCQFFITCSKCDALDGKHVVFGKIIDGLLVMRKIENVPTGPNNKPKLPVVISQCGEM

[2] = target: T1, peptidyl-prolyl isomerase H (PPIH), …; test: AUC

Row | Binder | Kd [1] | binding result (PPIH W133A mutant) | stoichiometry N [2] | Kd (PPIH W133A mutant)
1 | B1 | 0.39 ± 0.04 µM | binds | – | –
2 | B2 | 15.6 µM | – | – | –
3 | B3 | – | binds | 2 | –
4 | B4 | – | – | – | 1 µM
5 | B5 | 10.8 ± 1.37 µM | binds | – | –
